We go through one substance from patent US20120015841A1.

The target of the test is human GC-C (guanylate cyclase C) stably expressed in 293T cells (human) (UniProt P25092). Put plainly: cell-based or functional assay.
Chain of human GC-C (guanylate cyclase C) stably expressed in 293T cells (human) (P25092 24-1073): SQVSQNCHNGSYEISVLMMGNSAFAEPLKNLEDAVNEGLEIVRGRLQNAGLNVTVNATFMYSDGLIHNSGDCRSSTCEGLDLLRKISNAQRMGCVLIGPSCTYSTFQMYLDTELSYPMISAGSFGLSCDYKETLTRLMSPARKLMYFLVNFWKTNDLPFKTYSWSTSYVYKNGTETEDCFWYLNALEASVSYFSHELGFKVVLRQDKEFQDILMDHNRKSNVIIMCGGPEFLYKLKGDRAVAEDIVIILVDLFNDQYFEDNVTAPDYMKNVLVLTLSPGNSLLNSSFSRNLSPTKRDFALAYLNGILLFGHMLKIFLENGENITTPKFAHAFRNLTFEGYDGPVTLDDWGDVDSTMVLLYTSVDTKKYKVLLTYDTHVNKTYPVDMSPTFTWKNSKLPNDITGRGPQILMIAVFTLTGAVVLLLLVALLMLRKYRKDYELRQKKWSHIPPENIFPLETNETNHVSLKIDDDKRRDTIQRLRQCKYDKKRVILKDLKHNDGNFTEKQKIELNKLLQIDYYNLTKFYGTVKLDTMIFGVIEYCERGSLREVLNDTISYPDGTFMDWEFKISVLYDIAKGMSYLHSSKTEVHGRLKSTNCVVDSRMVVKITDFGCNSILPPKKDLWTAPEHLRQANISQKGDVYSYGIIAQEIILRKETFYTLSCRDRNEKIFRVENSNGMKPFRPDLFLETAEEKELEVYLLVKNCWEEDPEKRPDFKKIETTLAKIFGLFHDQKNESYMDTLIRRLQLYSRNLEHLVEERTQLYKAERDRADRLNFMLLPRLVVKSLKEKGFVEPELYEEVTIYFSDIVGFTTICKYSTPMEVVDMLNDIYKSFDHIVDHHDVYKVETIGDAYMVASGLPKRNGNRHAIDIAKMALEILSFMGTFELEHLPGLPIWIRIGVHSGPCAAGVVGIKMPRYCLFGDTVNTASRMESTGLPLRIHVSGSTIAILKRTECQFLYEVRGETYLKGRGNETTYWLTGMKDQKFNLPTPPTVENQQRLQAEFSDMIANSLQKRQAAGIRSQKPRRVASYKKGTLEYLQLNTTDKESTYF

guanylin (peptide) returned an EC50 of the cGMP response (absorbance, Direct Cyclic GMP Enzyme Immunoassay Kit) to a guanylin dose-response, 30 min, GC-C-expressing 293T cell line of 1.1 nM and a cGMP level in the GC-C-expressing cell line treated with low concentrations of guanylin of 6 pmol/mL.
